Experimental findings from patent US10047131B2, “Peptides and combination of peptides for use in immunotherapy against ovarian cancer and other cancers” (immatics biotechnologies GmbH, priority 2015, dated 2018) are described below.

The experiment deals with HLA-A*02:01 (Homo sapiens, UniProt P04439, D140Y/D185E/D98H/E176V/E277Q/G131W/G231S/I119V/I121R/I166T/I218V/L300P/L318F/N151K/N90K/P208A/P217A/Q86G/Q94H/R138H/R169H/T345S). The experiment in a line: MHC binding assay (UV-ligand exchange, ELISA of exchange yield). The following applies: binding to HLA-A*02:01, UV-ligand exchange. The essentials:
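ELISA of β2m retained on streptavidin-captured, 100-fold diluted complexes (HRP anti-β2m, TMB, 450 nm) gives the yield. Complexes come from UV-triggered exchange of a photocleavable placeholder peptide for the candidate, which must bind to stop complex dissociation.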
For orientation: In an ELISA, binding on a coated surface is turned into a signal by an enzyme label.
In the case of “240 (ILLEQAFYL; listed as Homo sapiens) [compound 240]”, the “Peptide exchange (MHC class I binding score, peptide exchange yield)” value (shortened to “Peptide exchange”) is recorded as ““+++” (≥50 = +++)”. In the case of “241 (SLVEVNPAYSV; listed as Homo sapiens) [compound 241]”, the “Peptide exchange” value is recorded as ““+++” (≥50 = +++)”.

Take “242 (AIAYILQGV; listed as Homo sapiens) [compound 242]”: the “Peptide exchange” value is on record as ““++” (≥20% = ++)”. For “243 (LLLNELPSV; listed as Homo sapiens) [compound 243]”, the “Peptide exchange” value is on record as ““+++” (≥50 = +++)”.

For “244 (SLFGGTEITI; listed as Homo sapiens) [compound 244]”, the “Peptide exchange” value is ““+++” (≥50 = +++)”. As for “245 (SMIDDLLGV; listed as Homo sapiens) [compound 245]”, the entry is ““+++” (≥50 = +++)”; as for “246 (LLWEVVSQL; listed as Homo sapiens) [compound 246]”, ““+++” (≥50 = +++)”. Turning to “247 (VLLPNDLLEKV; listed as Homo sapiens) [compound 247]”, the “Peptide exchange” value was ““+++” (≥50 = +++)”. The result for “248 (FLFPNQYVDV; listed as Homo sapiens) [compound 248]” reads ““+++” (≥50 = +++)”; that for “249 (LLDGFLVNV; listed as Homo sapiens) [compound 249]”, ““+++” (≥50 = +++)”; that for “250 (ALSEEGLLVYL; listed as Homo sapiens) [compound 250]”, ““+++” (≥50 = +++)”.

Regarding “251 (ALYTGFSILV; listed as Homo sapiens) [compound 251]”, the “Peptide exchange” value is ““++” (≥20% = ++)”. As for “252 (LLIGTDVSL; listed as Homo sapiens) [compound 252]”, the “Peptide exchange” value is ““+++” (≥50 = +++)”. For the substance “253 (GLDAATATV; listed as Homo sapiens) [compound 253]”, the “Peptide exchange” value is ““++” (≥20% = ++)”. Take “254 (TLLAFIMEL; listed as Homo sapiens) [compound 254]”: the “Peptide exchange” value was ““+++” (≥50 = +++)”. For “255 (VLASYNLTV; listed as Homo sapiens) [compound 255]”, the “Peptide exchange” value is on record as ““+++” (≥50 = +++)”. Take “256 (FLPPEHTIVYI; listed as Homo sapiens) [compound 256]”: the “Peptide exchange” value is ““+++” (≥50 = +++)”. “257 (SIFSAFLSV; listed as Homo sapiens) [compound 257]”: the “Peptide exchange” value is ““+++” (≥50 = +++)”.

“258 (ELAERVPAI; listed as Homo sapiens) [compound 258]”: the “Peptide exchange” value is ““++” (≥20% = ++)”. On to “261 (YVLEFLEEI; listed as Homo sapiens) [compound 261]”, for which the “Peptide exchange” value was ““++” (≥20% = ++)”. On to “262 (LLWGDLIWL; listed as Homo sapiens) [compound 262]”, for which the “Peptide exchange” value is reported as ““+++” (≥50 = +++)”. “263 (LLVSNLDFGV; listed as Homo sapiens) [compound 263]”: the “Peptide exchange” value is given as ““+++” (≥50 = +++)”. On to “264 (SLQEQLHSV; listed as Homo sapiens) [compound 264]”, for which the “Peptide exchange” value was ““+++” (≥50 = +++)”. Regarding “265 (LLFGGTKTV; listed as Homo sapiens) [compound 265]”, the “Peptide exchange” value is on record as ““++” (≥20% = ++)”.

Turning to “266 (KITDTLIHL; listed as Homo sapiens) [compound 266]”, the “Peptide exchange” value is recorded as ““+++” (≥50 = +++)”. Turning to “267 (ALQDFLLSV; listed as Homo sapiens) [compound 267]”, the “Peptide exchange” value is reported as ““+++” (≥50 = +++)”. Take “269 (RVLEVGALQAV; listed as Homo sapiens) [compound 269]”: the “Peptide exchange” value was ““++” (≥20% = ++)”.

For the substance “270 (LLLDEEGTFSL; listed as Homo sapiens) [compound 270]”, the “Peptide exchange” value is recorded as ““++” (≥20% = ++)”. Regarding “271 (LVYPLELYPA; listed as Homo sapiens) [compound 271]”, the “Peptide exchange” value is reported as ““+++” (≥50 = +++)”. Regarding “272 (ALGNTVPAV; listed as Homo sapiens) [compound 272]”, the “Peptide exchange” value is ““+++” (≥50 = +++)”. For “273 (NLFQSVREV; listed as Homo sapiens) [compound 273]”, the “Peptide exchange” value was ““++” (≥20% = ++)”.

For “274 (SLLFSLFEA; listed as Homo sapiens) [compound 274]”, the “Peptide exchange” value is listed as ““++” (≥20% = ++)”. “275 (YLVYILNEL; listed as Homo sapiens) [compound 275]”: the “Peptide exchange” value was ““++” (≥20% = ++)”.

As to “276 (ALFTFSPLTV; listed as Homo sapiens) [compound 276]”, the “Peptide exchange” value is ““+++” (≥50 = +++)”. Take “277 (LLPPLESLATV; listed as Homo sapiens) [compound 277]”: the “Peptide exchange” value was ““++” (≥20% = ++)”.

On to “278 (QLLDVVLTI; listed as Homo sapiens) [compound 278]”, for which the “Peptide exchange” value was ““++” (≥20% = ++)”. The result for “279 (ALWGGTQPLL; listed as Homo sapiens) [compound 279]” reads ““++” (≥20% = ++)”.

“280 (VLPDPEVLEAV; listed as Homo sapiens) [compound 280]”: the “Peptide exchange” value is ““+++” (≥50 = +++)”. As for “281 (ILRESTEEL; listed as Homo sapiens) [compound 281]”, the “Peptide exchange” value is recorded as ““+++” (≥50 = +++)”. On to “282 (LLADVVPTT; listed as Homo sapiens) [compound 282]”, for which the “Peptide exchange” value is recorded as ““+++” (≥50 = +++)”. For the substance “283 (ALYIGDGYVIHLA; listed as Homo sapiens) [compound 283]”, the “Peptide exchange” value is ““+++” (≥50 = +++)”. As for “284 (ILLSQTTGV; listed as Homo sapiens) [compound 284]”, the entry is ““+++” (≥50 = +++)”; as for “285 (QLLHVGVTV; listed as Homo sapiens) [compound 285]”, ““+++” (≥50 = +++)”. As for “286 (YLFPGIPEL; listed as Homo sapiens) [compound 286]”, the entry is ““+++” (≥50 = +++)”; as for “287 (FLNEFFLNV; listed as Homo sapiens) [compound 287]”, ““+++” (≥50 = +++)”.

On to “288 (NLINEINGV; listed as Homo sapiens) [compound 288]”, for which the “Peptide exchange” value was ““+++” (≥50 = +++)”.

In the case of “289 (VLLEIEDLQV; listed as Homo sapiens) [compound 289]”, the “Peptide exchange” value was ““++++” (≥75% = ++++)”. Regarding “295 (VLDRESPNV; listed as Homo sapiens) [compound 295]”, the “Peptide exchange” value is ““+++” (≥50 = +++)”. With “296 (FMEGAIIYV; listed as Homo sapiens) [compound 296]”, the “Peptide exchange” value is given as ““+++” (≥50 = +++)”. In the case of “297 (VLADIELAQA; listed as Homo sapiens) [compound 297]”, the “Peptide exchange” value is ““+++” (≥50 = +++)”. Take “298 (VMITKLVEV; listed as Homo sapiens) [compound 298]”: the “Peptide exchange” value is reported as ““+++” (≥50 = +++)”. For “299 (YLLETSGNL; listed as Homo sapiens) [compound 299]”, the “Peptide exchange” value is listed as ““+++” (≥50 = +++)”. As for “300 (ALLGQTFSL; listed as Homo sapiens) [compound 300]”, the entry is ““+++” (≥50 = +++)”; as for “301 (FLVEDLVDSL; listed as Homo sapiens) [compound 301]”, ““+++” (≥50 = +++)”. As for “302 (ALLQEGEVYSA; listed as Homo sapiens) [compound 302]”, the entry is ““+++” (≥50 = +++)”.

As to “303 (AILPQLFMV; listed as Homo sapiens) [compound 303]”, the “Peptide exchange” value is recorded as ““++++” (≥75% = ++++)”. With “304 (MTLGQIYYL; listed as Homo sapiens) [compound 304]”, the “Peptide exchange” value is on record as ““+++” (≥50 = +++)”. Regarding “305 (SIANFSEFYV; listed as Homo sapiens) [compound 305]”, the “Peptide exchange” value is on record as ““++++” (≥75% = ++++)”. “306 (ALVNVQIPL; listed as Homo sapiens) [compound 306]”: the “Peptide exchange” value is ““+++” (≥50 = +++)”. “307 (ALPVSLPQI; listed as Homo sapiens) [compound 307]”: the “Peptide exchange” value was ““+++” (≥50 = +++)”. On to “308 (SQYSGQLHEV; listed as Homo sapiens) [compound 308]”, for which the “Peptide exchange” value is listed as ““+++” (≥50 = +++)”.
